# Source: IntAct's records for PubMed 17875931
# Target: itf2_human TCF4 (UniProt P15884)
# Sequence (P15884 whole entry): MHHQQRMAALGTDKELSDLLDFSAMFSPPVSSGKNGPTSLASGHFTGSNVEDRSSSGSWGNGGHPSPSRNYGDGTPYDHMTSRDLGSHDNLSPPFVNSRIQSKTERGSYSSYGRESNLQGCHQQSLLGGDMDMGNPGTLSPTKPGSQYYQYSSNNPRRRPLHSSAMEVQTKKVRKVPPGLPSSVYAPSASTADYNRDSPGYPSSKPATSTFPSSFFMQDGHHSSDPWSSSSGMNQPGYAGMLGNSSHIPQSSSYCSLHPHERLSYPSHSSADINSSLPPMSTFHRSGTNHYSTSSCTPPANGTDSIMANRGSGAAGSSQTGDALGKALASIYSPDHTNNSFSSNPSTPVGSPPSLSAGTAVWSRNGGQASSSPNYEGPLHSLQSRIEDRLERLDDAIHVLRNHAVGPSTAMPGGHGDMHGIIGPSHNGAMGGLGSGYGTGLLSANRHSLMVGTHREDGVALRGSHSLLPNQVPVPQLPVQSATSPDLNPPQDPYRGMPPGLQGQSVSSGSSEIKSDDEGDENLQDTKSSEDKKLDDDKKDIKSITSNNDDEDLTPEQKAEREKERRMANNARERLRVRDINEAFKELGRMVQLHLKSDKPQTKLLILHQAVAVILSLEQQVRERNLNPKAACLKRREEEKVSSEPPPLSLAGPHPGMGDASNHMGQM
# Chain of Transcription factor SOX-17 (Mus musculus), Q61473 G103R (Q61473 whole entry G103R): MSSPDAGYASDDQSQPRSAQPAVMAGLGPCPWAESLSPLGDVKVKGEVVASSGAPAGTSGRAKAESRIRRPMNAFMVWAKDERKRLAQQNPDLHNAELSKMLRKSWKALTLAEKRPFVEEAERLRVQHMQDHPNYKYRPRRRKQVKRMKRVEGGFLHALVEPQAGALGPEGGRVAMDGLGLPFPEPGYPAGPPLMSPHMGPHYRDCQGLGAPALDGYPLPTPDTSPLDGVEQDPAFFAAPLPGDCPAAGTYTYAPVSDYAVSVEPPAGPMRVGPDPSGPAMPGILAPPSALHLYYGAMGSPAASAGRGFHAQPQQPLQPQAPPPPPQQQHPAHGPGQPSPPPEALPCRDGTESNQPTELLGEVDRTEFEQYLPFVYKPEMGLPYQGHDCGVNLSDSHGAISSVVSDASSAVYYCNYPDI
substance,measurement,value
"Transcription factor SOX-17 (Mus musculus), Q61473 G103R",effect of a mutation on the interaction,disrupting interaction
